According to patent US12138285B2, “Cholesterol reducing compositions and methods of use thereof” (The Broad Institute, Inc., priority 2019, dated 2024):
“Also recorded” adds a separate entry of the source.

Assays:
Assay type in all cases: biochemical
[1] = tested on: cholesterol; assay: Lysate experiments for cholesterol oxidoreductase activity (E. coli BL21 lysates expressing COR/HSD enzymes), substrate cholesterol; details: E. coli lysate expressing the enzyme, 100 μM cholesterol, 100 μM NADP+ and NAD+, 37° C. 12 h, LC-MS
Method: (§1) Candidate cholesterol oxidoreductase genes were amplified from genomic DNA (for E. coprostanoligenes) and cloned into pET28b. DNA was extracted from stool samples (DNeasy PowerSoil Kit, Qiagen) (for CAG:217, CAG:251 and CAG:341) or purchased from Genewiz (Ordered sequences are listed in Table 6). PCR reactions were performed with Phusion High Fidelity polymerase, and PCR products were purified (Zymoclean gel DNA recovery kit, Zymo research). The resulting gene products were assembled into pET28b using Gibson assembly and transformed into Stellar™ Competent Cells. The identities of the constructs were confirmed with DNA sequencing and transformed into E. coli BL21 strains for expression. All constructs were grown in LB with kanamycin (50 μg/mL) with the exception of the strain expressing the homolog from CAG:180 which required growth in TB for protein expression. […]
(§2) 500 mL of a culture of E. coli BL21 expressing one of the cholesterol oxidoreductase homologs were pelleted by centrifugation (20 min at 7,000 g and 4° C.), resuspended in 10 mL of ice-cold phosphate-buffered saline containing one cOmplete Protease Inhibitor cocktail tablet (Roche Diagnostics) and lysed by a cell disruptor (EmulsiFlex-C3, Avestin). […] After incubation at 37° C. for 12 h, the reaction mixtures were frozen until being analyzed using LC-MS. […]

[2] = tested on: cholesterol; assay: In vitro activity assay of purified N-terminal His-tagged ECOP170 (cofactor dependence); details: purified enzyme 1.5 μM, HEPES pH 7.5, 100 μM cholesterol, 100 μM NADP+ or NAD+
Method: FIG. 11 In vitro activity assay of purified N-terminal His-tagged ECOP170 expressed in BL21 E. coli. Activity assay with ECOP170 (1.5 μM) in HEPES (pH=7.5, 50 mM, 300 mM NaCl) with 100 μM cholesterol and either 100 μM of NADP^+ (red) or 100 μM of NAD^+ (blue). EICs of 2 (rt 2.60, 385.244→108.988) are shown for both conditions.
Proteins were overexpressed using the procedure described above. Cells from 200 mL of culture were pelleted by centrifugation, resuspended in 10 mL of ice-cold lysis buffer (300 mM NaCl, 10 mM imidazole, 50 mM HEPES, pH 7.5) containing one cOmplete Protease Inhibitor cocktail tablet, and lysed by 4 min of continuous passage through a cell disruptor (EmulsiFlex-C3, Avestin) at 15,000 lbs per square inch. Cell debris was removed by ultracentrifugation (20 min at 20,000×g and 4° C.), and the cell-free extract was applied to 0.5 mL of HisPur Ni-NTA Resin (Thermo Scientific) pre-equilibrated with lysis buffer by gentle rocking at 4° C. for 2 h. Non-absorbed materials and weakly bound proteins were removed by washing the column with 2×25 mL of wash buffer (300 mM NaCl, 20 mM imidazole, 50 mM HEPES, pH 7.5). His6-tagged protein was eluted with 5 mL of elution buffer (300 mM NaCl, 200 mM imidazole, 50 mM HEPES, pH 7.5). […]

[3] = tested on: primary bile acids cholic acid and chenodeoxycholic acid; assay: Lysate experiments for cholesterol oxidoreductase activity, substrate primary bile acids; details: E. coli lysate expressing the enzyme
Method: FIG. 12A-12B CORs from human-associated gut microbes accept cholesterol and coprostanol but not primary bile acids. Activity assay with E. coli lysates (PBS, pH=7.4) expressing one of the cholesterol oxidoreductase enzymes from human-associated microbes with FIG. 12A. […] EIC for the products of both reactions are shown.
500 mL of a culture of E. coli BL21 expressing one of the cholesterol oxidoreductase homologs were pelleted by centrifugation (20 min at 7,000 g and 4° C.), resuspended in 10 mL of ice-cold phosphate-buffered saline containing one cOmplete Protease Inhibitor cocktail tablet (Roche Diagnostics) and lysed by a cell disruptor (EmulsiFlex-C3, Avestin). Cell debris was removed by ultracentrifugation (30 min at 20,000 g and 4° C.). Protein expression was confirmed by SDS-PAGE analysis using 4-20% Mini-PROTEAN TGX gels (Bio-Rad Laboratories). Gels were stained with Coomassie Blue for visualization. The clarified supernatant was used directly in the cell lysate assay described below. Cholesterol or coprostanol (5 μL of a 10 mM solution of cholesterol or coprostanol in methanol) was added to 500 μL of clarified supernatant with 100 μM of NADP^+ and NAD^+. After incubation at 37° C. for 12 h, the reaction mixtures were frozen until being analyzed using LC-MS.

[4] = tested on: coprostanol; assay: Lysate experiments for cholesterol oxidoreductase activity, substrate coprostanol; details: E. coli lysate expressing the enzyme, 100 μM coprostanol, 100 μM NADP+ and NAD+, 37° C. 12 h, LC-MS
Method: as §1, §2

B1: ECOP170: 3β-hydroxysteroid dehydrogenase / cholesterol oxidoreductase (COR, IsmA) enzyme from E. coprostanoligenes (protein)
chain: MSTCWLQGKTVVVTGASGGMGAGIAATLIKKHGCTVIGVARNEKKMLKFVDELGETYAKQFSYELFDVSSKENWEKFAEELQEKGVKVDVLINNAGILPKFKRFDRYSYEEIERAMNINFYSCVYSVKTMLPMLLQSSTPAIINIDSSAALMTLAGTSMYSASKAALKGFTEALRVEFQGKMFVGLVCPGFTKTDIFSGQGDADMSNGAKVMDMISTDCDKMVKMIMFGIEHKTPMQVHGFDAHAMSVFNRLMPVYGSKLFSSIMRMSNVDIFKEVFSD
- oxidation of cholesterol (1) to cholestenone (2) [1]: converts cholesterol (1) to cholestenone (2); also recorded: oxidized cholesterol to 2; also recorded: oxidized cholesterol to cholestenone
- cofactor dependence of cholesterol oxidation [2]: showed a strict dependence on NADP^+ and not NAD^+
- oxidation of primary bile acids cholic acid and chenodeoxycholic acid to keto bile acids [3]: unable to oxidize the primary bile acids cholic acid and chenodeoxycholic acid; also recorded: did not oxidize the primary bile acids cholic acid and chenodeoxycholic acid
- oxidation of coprostanol (4) to coprostanone (3) [4]: converts coprostanol (4) to coprostanone (3); also recorded: catalyzed the oxidation of coprostanol (4) to coprostanone (3); also recorded: showed activity towards coprostanol
